Consider twelve substances from patent US20100331246A1 (INDIANA UNIVERSITY RESEARCH AND TECHNOLOGY, published 2010).

What all share (test): cell-based or functional assay
Assay [1] deals with GLP-1 receptor (UniProt P43220).
For assay [2], the target named is GLP-1 receptor (UniProt P43220 24-463, limits assumed).
In another assay the target is glucagon receptor (UniProt P47871 26-477).

Like-named read-outs stand apart in the source and are kept apart here.

Chain of GLP-1 receptor (UniProt P43220) (P43220 24-463 limits assumed): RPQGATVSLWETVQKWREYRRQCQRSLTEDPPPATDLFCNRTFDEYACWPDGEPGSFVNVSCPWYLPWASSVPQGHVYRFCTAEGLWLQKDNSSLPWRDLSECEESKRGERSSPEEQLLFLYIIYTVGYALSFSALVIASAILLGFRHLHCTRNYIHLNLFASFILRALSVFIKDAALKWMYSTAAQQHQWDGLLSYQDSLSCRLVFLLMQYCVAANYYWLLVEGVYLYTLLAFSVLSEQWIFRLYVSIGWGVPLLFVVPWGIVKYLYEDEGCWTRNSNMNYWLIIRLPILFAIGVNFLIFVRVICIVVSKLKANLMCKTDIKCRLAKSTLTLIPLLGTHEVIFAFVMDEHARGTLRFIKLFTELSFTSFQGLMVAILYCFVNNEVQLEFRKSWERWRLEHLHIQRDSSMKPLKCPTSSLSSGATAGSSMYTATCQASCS

In the assay with GLP-1 receptor [1], (H7F),(E9Q),GLP(8-36)-CEX (peptide) displayed a % potency with respect to GLP-1 of 33.3%.
Consider F^5V^6-O-F^7,GLP(8-36)-CEX (peptide), for which the % potency with respect to parent in the assay with GLP-1 receptor [1] came out at 1.3%.
As to G^5V^6-O-F^7,GLP(8-36)CEX (peptide), in the assay with GLP-1 receptor [1], the % potency with respect to parent was 12%; the % potency with respect to parent, before incubation turned out to be 10.9%; the % potency with respect to parent, prodrug incubated in PBS for 24 hrs was determined as 46%; the % potency with respect to parent, prodrug incubated in PBS for 168 hrs worked out at 95.8%.
As to HO-F5dV6-O-F7,GLP(8-36)-CEX (peptide), in the assay with GLP-1 receptor [2], the % potency with respect to parent came to 7%.
HO-F^5F^6-O-F^7,GLP(8-36)-CEX (peptide): in the assay with GLP-1 receptor [1], the % potency with respect to parent was determined as 3.6%; the % potency with respect to parent, before incubation worked out at 3.7%; the % potency with respect to parent, prodrug incubated in PBS for 24 hrs worked out at 17.2%.
Take “[A2E3, E16K20(Lactam), D28]G(1~29) (peptide)”: the GLP-1 EC50 in the assay with GLP-1 receptor [2] came to 0.2 nM. The Glucagon IC50 with glucagon receptor was 130 nM.
For “[A2E3, E16K20(Lactam), D28]G(2~29) (peptide)”, the Glucagon IC50 in the assay with glucagon receptor was determined as 63 nM.
The substance “[E9, E16K20(lactam), D28]G(4~29) (peptide)” gave a GLP-1 EC50 in the assay with GLP-1 receptor [2] of 151 nM. In the assay with glucagon receptor, the Glucagon IC50 lay in the range of 10 to 30 nM.
The like results for “[PLA6, D9, E16, E24K28(lactam), D28]G(6~29) (peptide)” were, in that order, 289 nM and 22 nM.
The like results for “[PLA6, D9, E16, K20E24(Lactam), D28]G(6-29) (peptide)” were, in that order, 239 nM and 74 nM.
Take “[PLA6, D9, E16K20(lactam), D28]G(6-29) (peptide)”: the GLP-1 EC50 is 5 to 25 nM in the assay with GLP-1 receptor [2] and 4 nM with GLP-1 receptor [2] (record 2). Moreover, the Glucagon IC50 with glucagon receptor is 10 to 30 nM; with glucagon receptor (record 2), 6 nM.
As for “[PLA6, D9, K12E16(Lactam), D28]G(6-29) (peptide)”, the GLP-1 EC50 was found to be 177 nM in the assay with GLP-1 receptor [2] and 21 nM in the assay with GLP-1 receptor [2] (record 2). The Glucagon IC50 with glucagon receptor was 63 nM; with glucagon receptor (record 2), 13 nM.
